Test results: patent US20220332804A1 (CSL INNOVATION, published 2022)

Columns and labels:
Assay in all cases: SPR, KD relative to WT C2;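 further: biacore SPR at 37 °C, anti-C2 mAbs captured via immobilised goat anti-human IgG, C2 alanine or serine surface mutants as analytes, 1:1 model fitted, double-referenced sensograms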
human C2 S708A = molecular target: T1, human C2 S708A (human, UniProt P06681 21-752)
T1 sequence: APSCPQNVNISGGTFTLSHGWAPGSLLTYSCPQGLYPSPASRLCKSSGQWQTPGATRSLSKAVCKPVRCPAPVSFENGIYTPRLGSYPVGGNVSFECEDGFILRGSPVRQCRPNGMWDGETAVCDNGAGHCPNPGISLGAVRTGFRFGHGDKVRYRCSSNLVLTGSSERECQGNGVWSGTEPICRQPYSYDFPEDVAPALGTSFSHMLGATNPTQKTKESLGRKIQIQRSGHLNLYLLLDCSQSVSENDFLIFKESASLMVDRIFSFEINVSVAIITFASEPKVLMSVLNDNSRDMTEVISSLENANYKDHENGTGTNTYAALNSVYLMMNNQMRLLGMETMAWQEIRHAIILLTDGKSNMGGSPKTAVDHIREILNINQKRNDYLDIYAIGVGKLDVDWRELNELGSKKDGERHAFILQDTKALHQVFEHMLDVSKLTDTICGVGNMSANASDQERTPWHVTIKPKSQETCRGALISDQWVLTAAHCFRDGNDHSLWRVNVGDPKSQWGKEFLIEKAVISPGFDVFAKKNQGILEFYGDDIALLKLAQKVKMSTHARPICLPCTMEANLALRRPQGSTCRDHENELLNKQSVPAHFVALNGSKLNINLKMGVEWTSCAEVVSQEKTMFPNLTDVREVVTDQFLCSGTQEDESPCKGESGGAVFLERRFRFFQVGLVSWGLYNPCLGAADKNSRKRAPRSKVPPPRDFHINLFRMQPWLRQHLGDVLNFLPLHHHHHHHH

human C2 G427A = molecular target: T2, human C2 G427A (human, UniProt P06681 21-752)
T2 sequence: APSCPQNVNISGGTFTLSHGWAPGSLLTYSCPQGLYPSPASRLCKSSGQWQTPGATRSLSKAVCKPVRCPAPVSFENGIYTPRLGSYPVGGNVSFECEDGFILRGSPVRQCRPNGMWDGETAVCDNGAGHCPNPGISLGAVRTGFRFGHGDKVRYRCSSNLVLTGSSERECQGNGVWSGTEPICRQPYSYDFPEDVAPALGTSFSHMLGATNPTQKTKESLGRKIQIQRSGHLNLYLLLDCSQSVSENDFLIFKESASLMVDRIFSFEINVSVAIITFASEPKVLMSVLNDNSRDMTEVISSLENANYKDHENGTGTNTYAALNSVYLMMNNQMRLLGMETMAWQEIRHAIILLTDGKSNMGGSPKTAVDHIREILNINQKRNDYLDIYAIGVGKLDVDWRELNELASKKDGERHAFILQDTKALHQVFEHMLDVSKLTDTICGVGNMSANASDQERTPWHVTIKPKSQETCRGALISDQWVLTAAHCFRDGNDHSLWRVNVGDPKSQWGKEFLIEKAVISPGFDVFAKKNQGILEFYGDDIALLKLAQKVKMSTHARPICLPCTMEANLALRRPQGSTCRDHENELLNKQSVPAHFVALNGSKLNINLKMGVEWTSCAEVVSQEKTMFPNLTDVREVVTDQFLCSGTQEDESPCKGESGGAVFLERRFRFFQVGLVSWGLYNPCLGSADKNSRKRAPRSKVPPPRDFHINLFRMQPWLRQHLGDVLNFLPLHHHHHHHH

human C2 Y328A = molecular target: T3, human C2 Y328A (human, UniProt P06681 21-752)
T3 sequence: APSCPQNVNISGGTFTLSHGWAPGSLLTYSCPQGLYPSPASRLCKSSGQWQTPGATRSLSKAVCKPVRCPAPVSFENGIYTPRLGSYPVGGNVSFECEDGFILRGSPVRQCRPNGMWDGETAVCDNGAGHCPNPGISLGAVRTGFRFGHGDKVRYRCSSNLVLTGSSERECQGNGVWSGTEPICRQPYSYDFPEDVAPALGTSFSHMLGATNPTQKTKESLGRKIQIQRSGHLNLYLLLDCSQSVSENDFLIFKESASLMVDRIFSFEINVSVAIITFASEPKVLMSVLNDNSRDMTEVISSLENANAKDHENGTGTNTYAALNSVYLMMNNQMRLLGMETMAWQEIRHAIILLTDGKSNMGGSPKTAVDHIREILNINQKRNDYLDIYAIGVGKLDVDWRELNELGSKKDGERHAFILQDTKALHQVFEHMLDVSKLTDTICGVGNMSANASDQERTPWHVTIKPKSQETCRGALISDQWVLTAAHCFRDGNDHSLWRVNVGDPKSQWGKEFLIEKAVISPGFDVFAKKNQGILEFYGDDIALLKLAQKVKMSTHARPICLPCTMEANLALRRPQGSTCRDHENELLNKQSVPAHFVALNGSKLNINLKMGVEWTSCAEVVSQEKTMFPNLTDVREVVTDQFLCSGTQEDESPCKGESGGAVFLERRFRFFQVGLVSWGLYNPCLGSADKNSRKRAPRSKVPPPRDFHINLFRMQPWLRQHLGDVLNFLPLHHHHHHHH

human C2 L271A = molecular target: T4, human C2 L271A (human, UniProt P06681 21-752)
T4 sequence: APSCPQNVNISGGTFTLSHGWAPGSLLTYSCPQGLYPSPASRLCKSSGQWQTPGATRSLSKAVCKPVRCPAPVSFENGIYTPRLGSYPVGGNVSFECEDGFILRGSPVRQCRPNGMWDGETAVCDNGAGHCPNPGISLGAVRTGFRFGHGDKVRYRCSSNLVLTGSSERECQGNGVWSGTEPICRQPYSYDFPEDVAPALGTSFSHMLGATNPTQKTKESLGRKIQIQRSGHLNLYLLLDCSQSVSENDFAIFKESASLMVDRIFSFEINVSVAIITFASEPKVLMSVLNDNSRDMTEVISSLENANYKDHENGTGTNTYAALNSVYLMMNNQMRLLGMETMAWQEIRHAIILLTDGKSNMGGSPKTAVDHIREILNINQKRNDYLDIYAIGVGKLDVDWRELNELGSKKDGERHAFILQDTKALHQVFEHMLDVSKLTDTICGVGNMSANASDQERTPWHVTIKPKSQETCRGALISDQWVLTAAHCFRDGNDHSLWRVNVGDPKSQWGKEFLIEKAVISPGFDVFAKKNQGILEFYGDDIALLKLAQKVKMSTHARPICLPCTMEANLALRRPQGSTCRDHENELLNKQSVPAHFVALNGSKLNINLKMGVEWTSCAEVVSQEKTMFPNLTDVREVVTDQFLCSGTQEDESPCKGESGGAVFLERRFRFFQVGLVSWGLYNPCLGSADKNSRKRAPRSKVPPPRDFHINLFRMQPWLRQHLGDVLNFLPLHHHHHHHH

B1: RF16-226 (antibody, human IgG4 S228P, lambda)
heavy: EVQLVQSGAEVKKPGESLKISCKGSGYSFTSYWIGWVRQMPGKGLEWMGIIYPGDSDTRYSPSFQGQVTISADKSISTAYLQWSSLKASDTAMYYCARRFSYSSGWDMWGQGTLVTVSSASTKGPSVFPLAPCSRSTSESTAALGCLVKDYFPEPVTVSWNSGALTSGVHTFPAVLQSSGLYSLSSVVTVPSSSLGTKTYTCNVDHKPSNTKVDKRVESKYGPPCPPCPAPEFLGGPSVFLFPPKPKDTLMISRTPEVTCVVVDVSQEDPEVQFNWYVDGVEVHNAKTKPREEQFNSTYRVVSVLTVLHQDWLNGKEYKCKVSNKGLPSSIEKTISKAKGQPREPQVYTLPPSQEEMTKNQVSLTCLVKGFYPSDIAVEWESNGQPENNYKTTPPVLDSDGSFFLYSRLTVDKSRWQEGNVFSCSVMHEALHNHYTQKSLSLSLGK
light: SYELTQPPSVSVSPGQTARITCSGDALTSKYVAWYQQKSGLAPLLVIYEDTRRPSGIPAKFSGSSSGSVATLTISGAHGDDEADYYCYSTDASGHQRVFGGGTKLTVLSQPKAAPSVTLFPPSSEELQANKATLVCLISDFYPGAVTVAWKADGSPVKAGVETTKPSKQSNNKYAASSYLSLTPEQWKSHRSYSCQVTHEGSTVEKTVAPTECS
notes: pH-dependent anti-C2 antibody from a phage display library; also called WT
**Q.** B1 was tested. Which Fold diff (human C2 S708A) did it give?
**A.** 2 fold

**Q.** And the Fold diff (human C2 G427A)?
**A.** 0 fold

**Q.** And the Fold diff (human C2 Y328A)?
**A.** 8 fold

**Q.** What about the Fold diff (human C2 L271A) of the same binder?
**A.** 1 fold
